The record followed here is US20090104170A1.

The target in this assay is MHC class 1 molecules on the target cells. The assay is described as follows: cell-based or functional assay.

With “monoclonal antibody W6/32 (anti-pan class 1 MHC monoclonal antibody; DAKO)”, the percent lysis of Volle EBV-LCLs by SKEM NK lines 2, 6 and 7 at a 10:1 E/T ratio after preculture of the targets with W6/32 is greater than 80%.
